In publication PMC3741069 (Biochemistry, 2013):
Residue numbers refer to the chain shown, from its start. Numbers in names are those of the source.

B1: nitrate reductase (NarB) (Synechococcus elongatus PCC 7942 = FACHB-805; R160Q) (protein)
chain: MIDTAKTLCPYCGVGCGLEAVPPAQPGRATVRDREGTPIWQIRGDRQHPSSQGMVCVKGATVAESVSKSRLKYPMFRASLDDPFTEISWDEALDRLCDRIQQTQADYGKDGICFYGSGQFQTEDYYIAQKLVKGCLGTNNFDTNSQLCMSSAVSAYSLCLGSDGPPACYEDLDLADCLLIVGSNTAECHPILFNRYRKRHKQGGTNLIVVDPRCTPTAEVADLHLALKPGSDVALLNGLGWLLYQMGYVKKDFIANQTEGFEDWLAIIEDYPPQRTAELTGLAVAELVRAADLIASAQRWLSLWSMGVNQSIQGTAKATSLINLHLLTRQIGLPGCGPFSLTGQPNAMGGRETGGLAHLLPGYRKVIDPQHRADVETIWGLPMGSISPQPGRTAWQMIEGLEQGAVGFLWVAATNPAVSLPDVKRAQAALKRSPFTVLQDAYHPTETTTYAHLLLPAAQWSEKTGTMTNSERRVTLCQAFRQPPGEARADWQIFAEVGRRLGFAFDYTDAAAVFAEYVQVTAGRLCDLSGLSHELLAQAGPQQWPFPAGAEPTTESKRLYTKHHFAYADGRARFQPFHHLGVAEPPDDRYPLVLTVGRLYGHWHTQTRTGRIDKINKLHPSAFVEIHPRDADRYNISEGQAVVIRSRRGEGCFPAKVTTAISPGVLFVPMHWGALWGDRTEANALTHPAACPISGEPELKACAVQIEAASSTFTI
B2: nitrate reductase (NarB) (Synechococcus elongatus PCC 7942 = FACHB-805; K144Q) (protein)
chain: B1 chain with K130Q, Q146R
B3: nitrate reductase (NarB) (Synechococcus elongatus PCC 7942 = FACHB-805; K144R) (protein)
chain: B1 chain with K130R, Q146R
B4: nitrate reductase (NarB) (Synechococcus elongatus PCC 7942 = FACHB-805) (protein)
chain: B1 chain with Q146R

What follows are proteins tested on O=[N+]([O-])O (assay: steady-state nitrate reductase assay, Michaelis-Menten fit). Details: saturating reduced ferredoxin (Synechocystis sp. PCC 6803) as electron donor.
Assay type: biochemical, Synechococcus elongatus

Protein	Km [µM]
B1	2.5 ± 0.3
B2	3.3 ± 0.5
B3	5.7 ± 2.5
B4	6.0 ± 1.0
